Blank lines part the entries; values can stand above or below the molecule they belong to. Ends that are not written are not given here. fluorescein = fluorescein label (light-emitting moiety) attached to the peptide
Assays:
[1] = molecular target: T1, BB1 (NMB receptor) (Homo sapiens, UniProt P28336); assay: Radioligand displacement binding, recombinant cells expressing BB1 (NMB receptor)
T1 construct: expressed in transfected cells
Method: (§1) All experimental results were obtained by displacing radiolabeled bombesin from the designated receptor, except for the results obtained for GRP which used radiolabeled GRP. Other receptors used in binding assays include the NMB receptor, the bombesin-receptor subtype 2 (BB2) and the bombesin receptor subtype 3 (BB3). As mentioned above, the biological activities of fluoresceinyl-NMC as well as fluoresceinyl-GRP compounds were determined in non-selective assay by binding to BB1, BB2 and BB3 expressed by rat brain neurons whereas the biological activities of fluoresceinyl-NMB and [Dphe^6, Ala^11, Phe^13, Nle^14]Bbn(6–14) compounds were determined by using recombinant cells expressing the BB1 (NMB receptor) or BB2 and BB3 receptors respectively.
Determination of IC50 for labeled peptides. […] In order to fully dissolve the peptide, the sample was reconstituted in 20 uL DMSO, vortexing well to ensure that all powder was completely dissolved, and then adding 0.48 mL of double distilled water. The stock solution was aliquoted to avoid repeated freezing and thawing of peptide. Unused aliquots were stored at −20° C. (protected from light) for maximum 24 hr. […]
(§2) Data for native and labeled peptides were analyzed by non-linear curve fitting. […]

[2] = molecular target: BB1, BB2, BB3; assay: Non-selective radioligand displacement binding, rat cerebral cortex / brain neurons
Method: Referring now to FIG. 4, a fluoresceinyl-NMC peptide with the amino aid sequence […]NH2 (SEQ ID NO:4) was tested to determine its affinity for NMC receptor sites. The fluoresceinyl-NMC peptide compound absorbs light maximally at 494 nm and features an emission spectrum centered around 518 nm. […] The IC50 is related to the binding constant Ki by the formula IC50=Ki (1+FL/Kd), where FL is the concentration of the free labeled ligand and Kd is the dissociation constant for the labeled ligand.
as §1
Determination of IC50 for labeled peptides. […] In order to fully dissolve the peptide, the sample was reconstituted in 20 uL DMSO, vortexing well to ensure that all powder was completely dissolved, and then adding 0.48 mL of double distilled water. The stock solution was aliquoted to avoid repeated freezing and thawing of peptide. Unused aliquots were stored at −20° C. (protected from light) for maximum 24 hr.
Receptor binding was carried out on tissues of rat cortex homogenate for GRP, recombinant cells expressing BB1 (NMB receptor) for NMB, or recombinant cells expressing BB2 and BB3 for [Dphe^6, Ala^11, Phe^13, Nle^14]Bbn(6–14). […]
as §2

[3] = molecular target: bombesin 2 receptor (BB2 or GRP receptor), recombinant cells; assay: radioligand displacement, recombinant cells expressing BB2
[4] = molecular target: bombesin 3 receptor (BB3 or orphan bombesin receptor), recombinant cells; assay: radioligand displacement, recombinant cells expressing BB3
bombesin 3 receptor (BB3 or orphan bombesin receptor), recombinant cells, sequence (P32247 whole entry): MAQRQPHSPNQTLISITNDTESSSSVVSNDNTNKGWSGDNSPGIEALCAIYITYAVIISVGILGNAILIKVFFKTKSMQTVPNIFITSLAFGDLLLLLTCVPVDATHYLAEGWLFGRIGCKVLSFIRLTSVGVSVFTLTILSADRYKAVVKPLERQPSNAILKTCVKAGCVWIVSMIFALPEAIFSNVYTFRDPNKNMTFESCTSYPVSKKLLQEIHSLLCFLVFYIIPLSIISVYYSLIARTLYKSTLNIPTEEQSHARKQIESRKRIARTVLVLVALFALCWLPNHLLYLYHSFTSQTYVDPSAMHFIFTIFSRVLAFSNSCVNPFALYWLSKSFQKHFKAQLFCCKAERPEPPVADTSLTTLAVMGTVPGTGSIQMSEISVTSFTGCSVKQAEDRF

[5] = molecular target: bombesin 1 receptor (BB1 or NMB receptor), recombinant cells; assay: radioligand displacement, recombinant cells expressing BB1 (NMB receptor)
[6] = molecular target: BB1, BB2 and BB3 expressed by rat brain neurons; assay: displacement of radiolabeled bombesin, rat cerebral cortex
[7] = molecular target: BB1, BB2 and BB3 expressed by rat brain neurons; assay: radioligand displacement (radiolabeled bombesin), rat cerebral cortex, non-selective
[8] = molecular target: BB1, BB2 and BB3 expressed by rat brain neurons; assay: radioligand displacement (radiolabeled GRP), rat cortex homogenate, non-selective

T1 sequence (P28336 whole entry): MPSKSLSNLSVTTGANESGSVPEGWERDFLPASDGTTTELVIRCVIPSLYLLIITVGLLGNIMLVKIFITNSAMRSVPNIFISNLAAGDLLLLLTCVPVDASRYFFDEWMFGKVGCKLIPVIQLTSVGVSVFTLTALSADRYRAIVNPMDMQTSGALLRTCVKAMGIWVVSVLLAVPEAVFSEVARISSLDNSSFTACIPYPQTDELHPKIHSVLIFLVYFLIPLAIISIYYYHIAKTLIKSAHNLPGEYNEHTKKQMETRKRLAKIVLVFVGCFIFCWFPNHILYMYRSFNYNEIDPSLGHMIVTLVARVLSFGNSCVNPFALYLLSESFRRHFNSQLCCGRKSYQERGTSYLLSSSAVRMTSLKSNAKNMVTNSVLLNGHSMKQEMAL

Molecule: CSCC[C@H](NC(=O)[C@H](Cc1ccccc1)NC(=O)[C@H](Cc1cnc[nH]1)NC(=O)CNC(=O)[C@@H](NC(=O)[C@H](C)NC(=O)[C@H](Cc1c[nH]c2ccccc12)NC(=O)[C@H](CC(C)C)NC(=O)[C@H](CC(N)=O)NC(=O)CN)[C@@H](C)O)C(N)=O [NMB]
Ki [1]: 0.1 nM

Molecule: [Dphe^6, Ala^11, Phe^13, Nle^14]Bbn(6-14) (peptide)
Ki [3]: 0.17 nM
Ki [4]: 23 nM

Molecule: fluoresceinyl-NMC peptide, sequence Gly-Asn-His-Trp-Ala-Val-Gly-His-Leu-Met-NH2 (SEQ ID NO:4), fluorescein at N-terminus (fluorescein-GNHWAVGHLM-NH2; listed as Sus scrofa) [Fluo*-NMC]
Ki ([2]; displacement of radiolabeled bombesin, BB1, BB2, BB3 of rat brain neurons): 3.2 nM
IC50 ([2]; read-out: IC50 (concentration at which 50% of the binding is inhibited), displacement of radiolabeled bombesin, receptors on rat cerebral cortex neurons): 3.2 nM

Molecule: fluoresceinyl-[Dphe^6, Ala^11, Phe^13, Nle^14]Bbn(6-14) (peptide)
Ki [3]: 0.26 nM
Ki [4]: 86 nM

Molecule: VPLPAGGGTVLTKMYPRGNHWAVGHLM-NH2 [GRP]
Ki [8]: 2 nM

Continued, values first:

Ki ([2]; displacement of radiolabeled GRP, BB1, BB2, BB3, rat cortex homogenate): 2 nM
Molecule: VPLPAGGGTVLTKMYPRGNHWAVGHLM [GRP]

Ki [5]: 7 nM
Molecule: {fluorescein (carboxylic form)}-GNLWATGHFM-NH2 [fluoresceinyl-NMB]

IC50 [6]: 3.2 nM
Ki [7]: 3.2 nM
Molecule: {fluorescein (carboxylic form)}-GNHWAVGHLM-NH2 [fluoresceinyl-NMC peptide]

Ki [8]: 32 nM
Molecule: {fluorescein (carboxylic form)}-VPLPAGGGTVLTKMYPRGNHWAVGHLM-NH2 [fluoresceinyl-GRP]

Ki [5]: 0.1 nM
Molecule: GNLWATGHFM-NH2 [NMB]
